Experimental findings from PMC5121064 are described below.

The target of this test is Sec14/PH module of NF1, NanoBRET construct. The test is described as follows: FRET or BRET. On the technique in general: Bioluminescence resonance energy transfer reports proximity on the nanometre scale.
Chain of Sec14/PH module of NF1, NanoBRET construct (P21359 2-2839): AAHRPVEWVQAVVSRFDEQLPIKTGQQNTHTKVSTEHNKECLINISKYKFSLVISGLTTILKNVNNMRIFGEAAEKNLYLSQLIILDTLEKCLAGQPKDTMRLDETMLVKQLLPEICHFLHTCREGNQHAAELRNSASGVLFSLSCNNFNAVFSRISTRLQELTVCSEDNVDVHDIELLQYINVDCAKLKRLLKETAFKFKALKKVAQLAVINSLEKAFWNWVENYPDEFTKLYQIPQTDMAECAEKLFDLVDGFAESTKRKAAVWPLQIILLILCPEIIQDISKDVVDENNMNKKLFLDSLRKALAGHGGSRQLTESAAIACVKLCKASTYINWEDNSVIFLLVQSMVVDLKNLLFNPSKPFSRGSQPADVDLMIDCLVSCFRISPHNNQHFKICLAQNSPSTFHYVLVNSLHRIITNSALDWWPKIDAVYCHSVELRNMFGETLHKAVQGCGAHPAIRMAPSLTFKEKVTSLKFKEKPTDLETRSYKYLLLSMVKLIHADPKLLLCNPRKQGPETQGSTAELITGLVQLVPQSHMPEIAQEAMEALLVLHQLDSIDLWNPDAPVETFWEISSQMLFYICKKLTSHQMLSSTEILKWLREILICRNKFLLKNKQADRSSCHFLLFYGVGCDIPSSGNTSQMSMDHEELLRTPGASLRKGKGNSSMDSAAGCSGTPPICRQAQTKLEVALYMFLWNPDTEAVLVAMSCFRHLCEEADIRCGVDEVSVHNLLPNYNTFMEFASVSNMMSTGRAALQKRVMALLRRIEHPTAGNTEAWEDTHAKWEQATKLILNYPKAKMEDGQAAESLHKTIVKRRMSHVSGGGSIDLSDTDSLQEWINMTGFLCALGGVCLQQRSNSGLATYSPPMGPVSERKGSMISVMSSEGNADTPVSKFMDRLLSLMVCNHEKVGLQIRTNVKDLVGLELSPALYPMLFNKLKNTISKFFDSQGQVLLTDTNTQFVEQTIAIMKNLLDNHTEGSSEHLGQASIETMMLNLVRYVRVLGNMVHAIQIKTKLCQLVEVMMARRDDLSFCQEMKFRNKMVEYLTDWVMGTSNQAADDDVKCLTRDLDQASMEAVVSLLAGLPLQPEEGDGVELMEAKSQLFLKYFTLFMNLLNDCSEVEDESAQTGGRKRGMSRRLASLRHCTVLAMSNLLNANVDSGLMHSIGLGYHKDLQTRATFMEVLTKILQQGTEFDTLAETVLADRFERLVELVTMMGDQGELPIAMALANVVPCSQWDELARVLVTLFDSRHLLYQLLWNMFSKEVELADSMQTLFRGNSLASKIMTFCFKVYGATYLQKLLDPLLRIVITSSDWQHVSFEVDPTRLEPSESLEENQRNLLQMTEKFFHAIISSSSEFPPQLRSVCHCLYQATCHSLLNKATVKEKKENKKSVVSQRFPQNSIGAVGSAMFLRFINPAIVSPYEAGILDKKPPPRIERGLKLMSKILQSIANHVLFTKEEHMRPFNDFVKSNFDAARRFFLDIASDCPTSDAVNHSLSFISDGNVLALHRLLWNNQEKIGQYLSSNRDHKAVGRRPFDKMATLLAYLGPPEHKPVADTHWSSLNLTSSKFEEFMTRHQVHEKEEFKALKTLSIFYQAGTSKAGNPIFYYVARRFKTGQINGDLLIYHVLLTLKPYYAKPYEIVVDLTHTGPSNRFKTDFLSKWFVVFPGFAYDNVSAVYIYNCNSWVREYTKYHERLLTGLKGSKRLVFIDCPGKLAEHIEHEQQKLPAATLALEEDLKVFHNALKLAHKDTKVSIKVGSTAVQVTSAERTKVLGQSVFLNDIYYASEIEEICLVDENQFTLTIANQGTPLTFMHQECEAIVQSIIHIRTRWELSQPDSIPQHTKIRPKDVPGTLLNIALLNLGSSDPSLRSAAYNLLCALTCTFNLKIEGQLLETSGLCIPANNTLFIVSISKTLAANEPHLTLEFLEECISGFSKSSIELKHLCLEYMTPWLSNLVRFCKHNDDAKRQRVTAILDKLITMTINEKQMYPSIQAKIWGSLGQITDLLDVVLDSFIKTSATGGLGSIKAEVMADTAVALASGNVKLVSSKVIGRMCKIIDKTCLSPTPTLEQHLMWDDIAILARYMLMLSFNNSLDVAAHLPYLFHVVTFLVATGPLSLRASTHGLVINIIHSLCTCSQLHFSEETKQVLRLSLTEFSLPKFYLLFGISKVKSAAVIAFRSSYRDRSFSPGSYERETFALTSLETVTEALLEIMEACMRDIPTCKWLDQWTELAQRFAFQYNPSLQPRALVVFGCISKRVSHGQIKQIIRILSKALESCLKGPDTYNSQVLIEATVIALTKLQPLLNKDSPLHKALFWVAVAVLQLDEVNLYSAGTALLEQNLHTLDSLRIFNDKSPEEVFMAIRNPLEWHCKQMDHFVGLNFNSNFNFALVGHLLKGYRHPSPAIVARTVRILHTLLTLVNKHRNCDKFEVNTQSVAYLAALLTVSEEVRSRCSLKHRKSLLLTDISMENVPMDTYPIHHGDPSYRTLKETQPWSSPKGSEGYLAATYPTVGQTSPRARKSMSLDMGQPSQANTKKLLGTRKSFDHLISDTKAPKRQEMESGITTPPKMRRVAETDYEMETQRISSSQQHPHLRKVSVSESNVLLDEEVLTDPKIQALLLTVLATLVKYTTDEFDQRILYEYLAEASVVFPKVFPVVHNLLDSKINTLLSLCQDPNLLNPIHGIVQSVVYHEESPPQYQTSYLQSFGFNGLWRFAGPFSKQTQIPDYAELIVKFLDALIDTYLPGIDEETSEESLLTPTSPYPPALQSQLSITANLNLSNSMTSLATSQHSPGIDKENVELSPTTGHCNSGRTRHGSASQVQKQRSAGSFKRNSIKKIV

“Gβγ, NanoBRET construct (from UniProt P62873 1-340; P59768 1-71) (complex)”: the 1/τ of the onset of the BRET signal after MOR activation was found to be 0.67 s⁻¹.
